The data set concerns MS2 coat protein. The data set can be described thus: apparent KD of MS2 coat protein; designed switch direction (-1 OFF switch, 1 ON switch): -1; higher = weaker reporter binding. Summed up:
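An oligonucleotide input, 200 uM small-molecule ligand, or no input was present during titration of SNAP-549-labelled MS2 coat protein, which was doubled from 0.7 or 1.5 nM to 3 µM. Designed RNA switches had been transcribed on Illumina chips by stalled E. coli RNA polymerase. Apparent KD per design is the median over clusters of curves fitted to normalised cluster fluorescence.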

[1] abbreviates: Eterna round: R95, input ligand: FMN 200 uM.
Where [2] appears, read: Eterna round: R95, input ligand: microRNA oligo, concentration not stated.
Where [3] appears, read: Eterna round: R95, input ligand: none.
Where [4] appears, read: input ligand: microRNA oligo, concentration not stated.

As to “GAUAGAGAGCAGGAUAUCUUGGAUAAGUGUUGUAGAGAAGGGCUCACAUGAGGAUCACCCAUGUGGUCCUAGAU [JL Dibiri mod 09] (puzzle: Exclusion 6)”, the “apparent KD of MS2 coat protein” value under setting [1] worked out at 0.0375 µM, the “apparent KD of MS2 coat protein” value under setting [2] worked out at 0.0132 µM and the “apparent KD of MS2 coat protein” value under setting [3] was 0.0143 µM.
For the sequence “UAGAAACAUGAGGAUCACCCAUGUGAGGAUAUGGCCCGCCCGGCGUGAGCUGGUUUUGUCAGAAGGCGCAUAGG [salish99_ex1_r4_020] (Eterna round: R97, puzzle: Exclusion 1)”, the “apparent KD of MS2 coat protein” value is, setting by setting: (input ligand: FMN 200 uM) 0.115 µM; (input ligand: none) 0.0711 µM.
Take “UUAUUAUAUGAAGGAUAUACUUAACAUGAGGAUCACCCAUGUGGUGUUGUGAGUGAGUGAGUUUAGUAGAAGGUCAAUUCUUUU [JMF's solution 93] (Eterna round: R96, puzzle: Exclusion NG 2)”: the “apparent KD of MS2 coat protein” value under setting [4] amounted to 0.418 µM.
As to “UUAAUACAUGUAGGAUAUGCGUGGCGAAGCUAUGCAGAAGGACAUGAGGAUCACCCAUGUUCUAGCGUCCGCGUACGGAUGCAA [JL Eng1 1.21 mod 9] (Eterna round: R96, puzzle: Exclusion NG 1)”, the “apparent KD of MS2 coat protein” value is, setting by setting: (input ligand: FMN 200 uM) 0.0164 µM; under setting [4], 0.012 µM; (input ligand: none) 0.0148 µM.
With “CUAGUCCGAGGAUAUAUUAAGUGAUACAUGAGGAUCACCCAUGUUAUUUAAUGGAUGUUAAUAGAAGGCGGACUAG [Mat - Exclusion 5 - JL mod - D76] (puzzle: Exclusion 5)”, the “apparent KD of MS2 coat protein” value is, setting by setting: under setting [1], 0.055 µM; under setting [2], 0.0377 µM; under setting [3], 0.0778 µM.
“GCGCACCUACCAAAAGGUAGGCCCACAUGAGGAUCACCCAUGUAGGAUAUCGAUUGCUUUGCAGUCGAGAAGGACGUGAUGCGC [JL ENG3 3.80 Mod 17] (Eterna round: R96, puzzle: Exclusion NG 3)”: the “apparent KD of MS2 coat protein” value was found to be 0.0257 µM (input ligand: FMN 200 uM), 0.0116 µM under setting [4] and 0.0183 µM (input ligand: none).
With “UAAUAAUAGCAAGGAUAUAGUUAUUAUAAUAUACUAGAAGGUGCACAUGAGGAUCACCCAUGUUUUAUAAUUUGUAAUUUAAAU [3rd something] (Eterna round: R96, puzzle: Exclusion NG 1)”, the “apparent KD of MS2 coat protein” value under setting [4] was 0.0209 µM.
On to “UUAAUGUGAGGAUAUCAGGUGUGAUAGAGUAAUGGUAAAUCUGAGAAGGCACAUGAGGAUCACCCAUGUUCUUC [Mat - Exclusion 4 - Mod of JL - D58] (puzzle: Exclusion 4)”, for which the “apparent KD of MS2 coat protein” value under setting [2] was 0.0215 µM.
Regarding “ACAUGUCAUUGAGGAUAUCGCACACAUGAGGAUCACCCAUGUAAACGGAUGCUCUUUCGUGGGUUCGAGAAGGCGAUGUACAUU [Ex NG2 #96] (Eterna round: R96, puzzle: Exclusion NG 2)”, the “apparent KD of MS2 coat protein” value is, setting by setting: (input ligand: FMN 200 uM) 0.136 µM; under setting [4], 0.049 µM; (input ligand: none) 0.088 µM.
For “CUCCGCCGCAGAGGAUAUGGAUGUCGGAGACAUGAGGAUCACCCAUGUAUCCUGUCGAUGAGUACCCAGAAGGUUGUCACGCAU [Eternabot solution 49] (Eterna round: R96, puzzle: Exclusion NG 2)”, the “apparent KD of MS2 coat protein” value by setting is: (input ligand: FMN 200 uM) 0.0264 µM; under setting [4], 0.026 µM; (input ligand: none) 0.0261 µM.
Consider “CUGAAUCGAGGAUAUUGUACUGCUGACAUGAGGAUCACCCAUGUAUGUUAACUCAGCCGUCGAGAAGGCGAACAUA [BotMod 33 - Jieux - Exclusion 5] (Eterna round: R97, puzzle: Exclusion 5)”, for which the “apparent KD of MS2 coat protein” value by setting is: (input ligand: FMN 200 uM) 0.0128 µM; (input ligand: none) 0.019 µM.
Consider “GAUGAGGUAGGAUAUACGAUAAUAUAGGGUAGAUAUAUAACACAUGAGGAUCACCCAUGUAGAAGGACCAGGAG [Mat - Exclusion 2 - Mod of my Tesla design - D65] (puzzle: Exclusion 2)”, for which the “apparent KD of MS2 coat protein” value runs as follows: under setting [1], 0.0773 µM; under setting [2], 0.0281 µM; under setting [3], 0.0361 µM.
The matching figures for “UACCGGCGGACCGAAGCUUUUUGCUUGUUUUAUACUACAACAUGAGGAUCACCCAUGUGGUGGUGGUCCGUUGUAGU [JL ViennaUCT Bitein mod 1] (puzzle: Sensor v3, turn-off variant 2)”: 0.0639 µM, 0.0167 µM and 0.0586 µM.
Turning to “GGACCUGGAGGAUAUAGAGCACUGAACAUGAGGAUCACCCAUGUGACCGGUGUAGUGCACCUAGAAGGCCGCGGCA [Eternabot (L1) Solution 40] (Eterna round: R97, puzzle: Exclusion 5)”, the “apparent KD of MS2 coat protein” value (input ligand: FMN 200 uM) worked out at 0.129 µM and the “apparent KD of MS2 coat protein” value (input ligand: none) came to 0.0654 µM.
Regarding “AGUGCGUAUGUGAGGAUAUGCUGGUCCUUGGAUCGGCAGAAGGCACAUGAGGAUCACCCAUGUGGUGUCGUACC [salish99_Bmod_ex4_076] (puzzle: Brourd's mod of Exclusion 4)”, the “apparent KD of MS2 coat protein” value under setting [2] was 0.136 µM.
The same measure, in the same setting: in the case of “AAUAACAGAGGAUAUACUAUUUUAUGUGUUUAUUGUUUUAAACAUGAGGAUCACCCAUGUAGAAGGCUGAUUGA [JMF 73] (puzzle: Exclusion 2)” it was 0.0655 µM.
As to “CUGAACCCGGUAGGAUAUAUUGUGGGCAGGCGUGGAACGACAUGAGGAUCACCCAUGUAAUUGAGGUAGAAGGGCCGAGAGAUU [Excl-NG2-LRO14] (Eterna round: R96, puzzle: Exclusion NG 2)”, the “apparent KD of MS2 coat protein” value (input ligand: FMN 200 uM) worked out at 0.0328 µM, the “apparent KD of MS2 coat protein” value under setting [4] turned out to be 0.0259 µM and the “apparent KD of MS2 coat protein” value (input ligand: none) is 0.0371 µM.
Take “CCUUACCGAGGAUAUACAUGAGGAUCACCCAUGUGAUCCUAAGGCUGAUCAAGCCUAUGUAGAAGGCGCAAAUC [salish99_ex3_r4_004] (Eterna round: R97, puzzle: Exclusion 3)”: the “apparent KD of MS2 coat protein” value amounted to 0.16 µM (input ligand: FMN 200 uM) and 0.13 µM (input ligand: none).
Regarding “AAGAAACAUGAGGAUCACCCAUGUGAGGAUAUGACGAAGAAAAGAAAAGAAAGAAGAGUCAGAAGGCACAAAGG [salish99-ex1_r3_067] (puzzle: Exclusion 1)”, the “apparent KD of MS2 coat protein” value is, setting by setting: under setting [1], 0.132 µM; under setting [2], 0.1 µM; under setting [3], 0.109 µM.
“AGGCCCGAUGGAGGAUAUGUAAGUAAUUGAGAUACUUCAUGUCACAUGAGGAUCACCCAUGUACGGCAGAAGGCCGACGGAGCC [Raanoner] (Eterna round: R96, puzzle: Exclusion NG 2)”: the “apparent KD of MS2 coat protein” value worked out at 0.0249 µM (input ligand: FMN 200 uM), 0.0173 µM under setting [4] and 0.02 µM (input ligand: none).
As for “GUGCGGUGAGGAUAUACGUAGGUGAAAAUCUGUGUGUUCCUACAUGAGGAUCACCCAUGUAGAAGGCAUGUCAC [LRO-Excl2-14] (puzzle: Exclusion 2)”, the “apparent KD of MS2 coat protein” value under setting [2] stood at 0.0476 µM.
As for “GGCUGACGCGGUAGGCCUUACAUGAGGAUCACCCAUGUCGAUGCCAUUCCAAAACACGGGUUUGAGGUUCGUCAUUG [Eternabot (L1) Solution 46] (Eterna round: R97, puzzle: Sensor, turn-off variant 1)”, the “apparent KD of MS2 coat protein” value by setting is: (input ligand: FMN 200 uM) 0.0997 µM; (input ligand: none) 0.1 µM.
Take “CAAGAACAGGUCAGGAUAUGGCAAAUAAAUAACAACCAGAAGGGACUUGAGGAUCACCCAAGUUUAGAAGGGUA [Tebeorus] (Eterna round: R97, puzzle: Brourd's mod of Exclusion 4)”: the “apparent KD of MS2 coat protein” value was 0.221 µM (input ligand: FMN 200 uM) and 0.0394 µM (input ligand: none).
As for “ACUAGAUGAGGAUAUGCACAUUUUAGUGUUCCUCUAGAUUAACAUGAGGAUCACCCAUGUAGAAGGCGUCAUUU [Exclusion 2 - 13] (puzzle: Exclusion 2)”, the “apparent KD of MS2 coat protein” value under setting [2] worked out at 0.0697 µM.
“GUACGUAGAGGAUAUGGUUAUGAUGACAUGAGGAUCACCCAUGUUAGAGUGGGUAGAUUUCCAGAAGGCUGUGAAC [Eternabot (L1) Solution 98] (Eterna round: R97, puzzle: Exclusion 5)”: the “apparent KD of MS2 coat protein” value is, setting by setting: (input ligand: FMN 200 uM) 1.06 µM; (input ligand: none) 1.33 µM.
Regarding “GUAAUACAUGAGGAUCACCCAUGUAAGGAUAUGCUAGCGGUCGGCUGACUGACUGCUAGCAGAAGGUACAUGAU [Mat - Mod of JL D77] (puzzle: Exclusion 1)”, the “apparent KD of MS2 coat protein” value under setting [2] worked out at 0.0872 µM.
For the sequence “CCGCUGCAAGGAUAUACUUGCGGUGAUGUUCGAGUUCUUCUACUUGAGGAUCACCCAAGUAGAAGGUGCAAAAC [jl-ex2.4.58 ViennaUCT mod] (Eterna round: R97, puzzle: Exclusion 2)”, the “apparent KD of MS2 coat protein” value runs as follows: (input ligand: FMN 200 uM) 0.0192 µM; (input ligand: none) 0.0193 µM.
With “AGGGAUAAAGGAUAUACAUGAGGAUCACCCAUGUUGAGGAAAGUUAGAUGAGGAGGAAGUAGAAGGUUAGACGA [JR_Exclu3_Sub087] (puzzle: Exclusion 3)”, the “apparent KD of MS2 coat protein” value reads like this: under setting [1], 0.0243 µM; under setting [2], 0.0354 µM; under setting [3], 0.0425 µM.
Turning to “GUAUAUAGUGUGAGGAUAUGCUGGUCCUUGGAUCAGCAGAAGGCACAUGAGGAUCACCCAUGUAGUUAAAUAUG [Mat - Exclusion 4 - JL Mod - D21] (puzzle: Brourd's mod of Exclusion 4)”, under setting [2], the “apparent KD of MS2 coat protein” value was 0.0263 µM.
In the case of “GCACUGGCAGGAUAUACAUGAGGAUCACCCAUGUGAUCCCUUAAGUACAAAAGUACUAGUAGAAGGGCCUGUGC [Omei Ex3 Model Bachelor's Dilema v46] (Eterna round: R97, puzzle: Exclusion 3)”, the “apparent KD of MS2 coat protein” value (input ligand: FMN 200 uM) turned out to be 0.307 µM and the “apparent KD of MS2 coat protein” value (input ligand: none) was determined as 0.785 µM.
As to “UCUGCAACGCAAGGAUAUCUUAGAGUUGAAGAAAGAGAAGGUGCAGGUGAUAACAUGCCCGUAACAUGAGGAUCACCCAUGUAA [Eternabot solution 48] (Eterna round: R96, puzzle: Exclusion NG 1)”, the “apparent KD of MS2 coat protein” value runs as follows: (input ligand: FMN 200 uM) 0.0961 µM; under setting [4], 0.0683 µM; (input ligand: none) 0.0793 µM.
